From patent publication US20240321457A1 (University of California, published 2024) come the findings set out here.

First the molecules themselves.
T1: UBE2N (human, UniProt P61088 1-152)
T1 construct: endogenous prey from cell lysate; also called UBC13
T1 sequence (looked up): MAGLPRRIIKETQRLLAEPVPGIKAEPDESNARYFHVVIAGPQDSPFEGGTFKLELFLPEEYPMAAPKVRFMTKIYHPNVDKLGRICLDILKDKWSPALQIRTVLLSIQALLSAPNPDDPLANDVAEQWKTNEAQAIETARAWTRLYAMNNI

B1: BRCA1 5382insC (enzyme, human, UniProt P38398 1-1755, looked up)
chain: MDLSALRVEEVQNVINAMQKILECPICLELIKEPVSTKCDHIFCKFCMLKLLNQKKGPSQCPLCKNDITKRSLQESTRFSQLVEELLKIICAFQLDTGLEYANSYNFAKKENNSPEHLKDEVSIIQSMGYRNRAKRLLQSEPENPSLQETSLSVQLSNLGTVRTLRTKQRIQPQKTSVYIELGSDSSEDTVNKATYCSVGDQELLQITPQGTRDEISLDSAKKAACEFSETDVTNTEHHQPSNNDLNTTEKRAAERHPEKYQGSSVSNLHVEPCGTNTHASSLQHENSSLLLTKDRMNVEKAEFCNKSKQPGLARSQHNRWAGSKETCNDRRTPSTEKKVDLNADPLCERKEWNKQKLPCSENPRDTEDVPWITLNSSIQKVNEWFSRSDELLGSDDSHDGESESNAKVADVLDVLNEVDEYSGSSEKIDLLASDPHEALICKSERVHSKSVESNIEDKIFGKTYRKKASLPNLSHVTENLIIGAFVTEPQIIQERPLTNKLKRKRRPTSGLHPEDFIKKADLAVQKTPEMINQGTNQTEQNGQVMNITNSGHENKTKGDSIQNEKNPNPIESLEKESAFKTKAEPISSSISNMELELNIHNSKAPKKNRLRRKSSTRHIHALELVVSRNLSPPNCTELQIDSCSSSEEIKKKKYNQMPVRHSRNLQLMEGKEPATGAKKSNKPNEQTSKRHDSDTFPELKLTNAPGSFTKCSNTSELKEFVNPSLPREEKEEKLETVKVSNNAEDPKDLMLSGERVLQTERSVESSSISLVPGTDYGTQESISLLEVSTLGKAKTEPNKCVSQCAAFENPKGLIHGCSKDNRNDTEGFKYPLGHEVNHSRETSIEMEESELDAQYLQNTFKVSKRQSFAPFSNPGNAEEECATFSAHSGSLKKQSPKVTFECEQKEENQGKNESNIKPVQTVNITAGFPVVGQKDKPVDNAKCSIKGGSRFCLSSQFRGNETGLITPNKHGLLQNPYRIPPLFPIKSFVKTKCKKNLLEENFEEHSMSPEREMGNENIPSTVSTISRNNIRENVFKEASSSNINEVGSSTNEVGSSINEIGSSDENIQAELGRNRGPKLNAMLRLGVLQPEVYKQSLPGSNCKHPEIKKQEYEEVVQTVNTDFSPYLISDNLEQPMGSSHASQVCSETPDDLLDDGEIKEDTSFAENDIKESSAVFSKSVQKGELSRSPSPFTHTHLAQGYRRGAKKLESSEENLSSEDEELPCFQHLLFGKVNNIPSQSTRHSTVATECLSKNTEENLLSLKNSLNDCSNQVILAKASQEHHLSEETKCSASLFSSQCSELEDLTANTNTQDPFLIGSSKQMRHQSESQGVGLSDKELVSDDEERGTGLEENNQEEQSMDSNLGEAASGCESETSVSEDCSGLSSQSDILTTQQRDTMQHNLIKLQQEMAELEAVLEQHGSQPSNSYPSIISDSSALEDLRNPEQSTSEKAVLTSQKSSEYPISQNPEGLSADKFEVSADSSTSKNKEPGVERSSPSKCPSLDDRWYMHSCSGSLQNRNYPSQEELIKVVDVEEQQLEESGPHDLTETSYLPRQDLEGTPYLESGISLFSDDPESDPSEDRAPESARVGNIPSSTSALKVPQLKVAESAQSPAAAHTTDTAGYNAMEESVSREKPELTASTERVNKRMSMVVSGLTPEEFMLVYKFARKHHITLTNLITEETTHVVMKTDAEFVCERTLKYFLGIAGGKWVVSYFWVTQSIKERKMLNEHDFEVRGDVVNGRNHQGPKRARESPGQKDLQGARNLLLWALHQHAHRSTGMDGTAVWCFCGEGAFIIHPWHRCPPNCGCAARCLDRGQWLPCNWADV
notes: 3xFLAG-tagged bait; also called 5832insC
B2: BRCA1 C61G (enzyme, human, UniProt P38398 1-1863, looked up)
chain: MDLSALRVEEVQNVINAMQKILECPICLELIKEPVSTKCDHIFCKFCMLKLLNQKKGPSQGPLCKNDITKRSLQESTRFSQLVEELLKIICAFQLDTGLEYANSYNFAKKENNSPEHLKDEVSIIQSMGYRNRAKRLLQSEPENPSLQETSLSVQLSNLGTVRTLRTKQRIQPQKTSVYIELGSDSSEDTVNKATYCSVGDQELLQITPQGTRDEISLDSAKKAACEFSETDVTNTEHHQPSNNDLNTTEKRAAERHPEKYQGSSVSNLHVEPCGTNTHASSLQHENSSLLLTKDRMNVEKAEFCNKSKQPGLARSQHNRWAGSKETCNDRRTPSTEKKVDLNADPLCERKEWNKQKLPCSENPRDTEDVPWITLNSSIQKVNEWFSRSDELLGSDDSHDGESESNAKVADVLDVLNEVDEYSGSSEKIDLLASDPHEALICKSERVHSKSVESNIEDKIFGKTYRKKASLPNLSHVTENLIIGAFVTEPQIIQERPLTNKLKRKRRPTSGLHPEDFIKKADLAVQKTPEMINQGTNQTEQNGQVMNITNSGHENKTKGDSIQNEKNPNPIESLEKESAFKTKAEPISSSISNMELELNIHNSKAPKKNRLRRKSSTRHIHALELVVSRNLSPPNCTELQIDSCSSSEEIKKKKYNQMPVRHSRNLQLMEGKEPATGAKKSNKPNEQTSKRHDSDTFPELKLTNAPGSFTKCSNTSELKEFVNPSLPREEKEEKLETVKVSNNAEDPKDLMLSGERVLQTERSVESSSISLVPGTDYGTQESISLLEVSTLGKAKTEPNKCVSQCAAFENPKGLIHGCSKDNRNDTEGFKYPLGHEVNHSRETSIEMEESELDAQYLQNTFKVSKRQSFAPFSNPGNAEEECATFSAHSGSLKKQSPKVTFECEQKEENQGKNESNIKPVQTVNITAGFPVVGQKDKPVDNAKCSIKGGSRFCLSSQFRGNETGLITPNKHGLLQNPYRIPPLFPIKSFVKTKCKKNLLEENFEEHSMSPEREMGNENIPSTVSTISRNNIRENVFKEASSSNINEVGSSTNEVGSSINEIGSSDENIQAELGRNRGPKLNAMLRLGVLQPEVYKQSLPGSNCKHPEIKKQEYEEVVQTVNTDFSPYLISDNLEQPMGSSHASQVCSETPDDLLDDGEIKEDTSFAENDIKESSAVFSKSVQKGELSRSPSPFTHTHLAQGYRRGAKKLESSEENLSSEDEELPCFQHLLFGKVNNIPSQSTRHSTVATECLSKNTEENLLSLKNSLNDCSNQVILAKASQEHHLSEETKCSASLFSSQCSELEDLTANTNTQDPFLIGSSKQMRHQSESQGVGLSDKELVSDDEERGTGLEENNQEEQSMDSNLGEAASGCESETSVSEDCSGLSSQSDILTTQQRDTMQHNLIKLQQEMAELEAVLEQHGSQPSNSYPSIISDSSALEDLRNPEQSTSEKAVLTSQKSSEYPISQNPEGLSADKFEVSADSSTSKNKEPGVERSSPSKCPSLDDRWYMHSCSGSLQNRNYPSQEELIKVVDVEEQQLEESGPHDLTETSYLPRQDLEGTPYLESGISLFSDDPESDPSEDRAPESARVGNIPSSTSALKVPQLKVAESAQSPAAAHTTDTAGYNAMEESVSREKPELTASTERVNKRMSMVVSGLTPEEFMLVYKFARKHHITLTNLITEETTHVVMKTDAEFVCERTLKYFLGIAGGKWVVSYFWVTQSIKERKMLNEHDFEVRGDVVNGRNHQGPKRARESQDRKIFRGLEICCYGPFTNMPTDQLEWMVQLCGASVVKELSSFTLGTGVHPIVVVQPDAWTEDNGFHAIGQMCEAPVVTREWVLDSVALYQCQELDTYLIPQIPHSHY
notes: 3xFLAG-tagged bait; also called RING domain mutant C61G
B3: BRCA1 M1775R (enzyme, human, UniProt P38398 1-1863, looked up)
chain: B2 chain with G61C, M1775R
notes: 3xFLAG-tagged bait; also called BRCT domain mutant M1775R
B4: BRCA1 S1655F (enzyme, human, UniProt P38398 1-1863, looked up)
chain: B2 chain with G61C, S1655F
notes: 3xFLAG-tagged bait; also called BRCT domain mutant S1655F; 51655F
B5: BRCA1 R71G (enzyme, human, UniProt P38398 1-1863, looked up)
chain: B2 chain with G61C, R71G
notes: 3xFLAG-tagged bait; also called RING domain mutant R71G
B6: BRIP1 (enzyme, human, UniProt Q9BX63 1-1249, looked up)
chain: MSSMWSEYTIGGVKIYFPYKAYPSQLAMMNSILRGLNSKQHCLLESPTGSGKSLALLCSALAWQQSLSGKPADEGVSEKAEVQLSCCCACHSKDFTNNDMNQGTSRHFNYPSTPPSERNGTSSTCQDSPEKTTLAAKLSAKKQASIYRDENDDFQVEKKRIRPLETTQQIRKRHCFGTEVHNLDAKVDSGKTVKLNSPLEKINSFSPQKPPGHCSRCCCSTKQGNSQESSNTIKKDHTGKSKIPKIYFGTRTHKQIAQITRELRRTAYSGVPMTILSSRDHTCVHPEVVGNFNRNEKCMELLDGKNGKSCYFYHGVHKISDQHTLQTFQGMCKAWDIEELVSLGKKLKACPYYTARELIQDADIIFCPYNYLLDAQIRESMDLNLKEQVVILDEAHNIEDCARESASYSVTEVQLRFARDELDSMVNNNIRKKDHEPLRAVCCSLINWLEANAEYLVERDYESACKIWSGNEMLLTLHKMGITTATFPILQGHFSAVLQKEEKISPIYGKEEAREVPVISASTQIMLKGLFMVLDYLFRQNSRFADDYKIAIQQTYSWTNQIDISDKNGLLVLPKNKKRSRQKTAVHVLNFWCLNPAVAFSDINGKVQTIVLTSGTLSPMKSFSSELGVTFTIQLEANHIIKNSQVWVGTIGSGPKGRNLCATFQNTETFEFQDEVGALLLSVCQTVSQGILCFLPSYKLLEKLKERWLSTGLWHNLELVKTVIVEPQGGEKTNFDELLQVYYDAIKYKGEKDGALLVAVCRGKVSEGLDFSDDNARAVITIGIPFPNVKDLQVELKRQYNDHHSKLRGLLPGRQWYEIQAYRALNQALGRCIRHRNDWGALILVDDRFRNNPSRYISGLSKWVRQQIQHHSTFESALESLAEFSKKHQKVLNVSIKDRTNIQDNESTLEVTSLKYSTSPYLLEAASHLSPENFVEDEAKICVQELQCPKIITKNSPLPSSIISRKEKNDPVFLEEAGKAEKIVISRSTSPTFNKQTKRVSWSSFNSLGQYFTGKIPKATPELGSSENSASSPPRFKTEKMESKTVLPFTDKCESSNLTVNTSFGSCPQSETIISSLKIDATLTRKNHSEHPLCSEEALDPDIELSLVSEEDKQSTSNRDFETEAEDESIYFTPELYDPEDTDEEKNDLAETDRGNRLANNSDCILAKDLFEIRTIKEVDSAREVKAEDCIDTKLNGILHIEESKIDDIDGNVKTTWINELELGKTHEIEIKNFKPSPSKNKGMFPGFK
notes: endogenous prey from cell lysate

Positions count from the first letter of the chain named. Names and notes keep the numbering of the source. Bounds are passed on as bounds.

One test deals with T1, UBE2N. The experiment in a line: AP-MS, PPI score from compPASS and SAINTexpress, MDA-MB-231 cells.
The test “BRCA1 S1655F” concerns the target B4. The test is described as follows: AP-MS, MSstats WT vs mutant, MDA-MB-231 cells.
For the test “BRCA1 M1775R”, the target named is B3. The experiment in a line: AP-MS, MSstats WT vs mutant, MDA-MB-231 cells.
For the test “BRCA1 5382insC”, the target named is B1. The test is described as follows: AP-MS, MSstats WT vs mutant, MDA-MB-231 cells.

Procedure for UBE2N: For AP-MS experiments, samples were resuspended in 15 μL of MS loading buffer (4% formic acid, 2% acetonitrile) and 2 μL were separated by a reversed-phase gradient over a nanoflow 75 μm ID×25 cm long picotip column packed with 1.9 μM C18 particles (Dr. Maisch). Peptides were directly injected over the course of a 75 min acquisition into a Q-Exactive Plus mass spectrometer (Thermo), or over the course of a 90 min acquisition into a Orbitrap Elite mass spectrometer. […] Peptides and proteins were filtered to 1% false discovery rate in MaxQuant, and identified proteins were then subjected to protein-protein interaction scoring.
All PPI scoring was performed separately for each cell line. For SAINTexpress, control samples in which bait protein was not induced by addition of doxycycline were used. For CompPASS, a stats table representing all WT baits was used. After scoring, the CompPASS WD and Z-score were normalized within a given bait for each cell line. The total list of candidate PPIs was filtered to those that met the following criteria: SAINTexpress BFDR=<0.05, WD percentile by bait>=0.95, and Z-score percentile by bait≤=0.95. PPIs passing all 3 of these criteria were considered to be high-confidence PPIs. To enable visualization and analysis of PPIs by confidence score among these 3 criteria, a PPI score was calculated: [(WD percentile by bait+Z-score percentile by bait)/2)+(1−BFDR)]/2.

Regarding B1, the PPI score in the test with UBE2N is < 0.6.

Turning to B2, the PPI score in the test with UBE2N is < 0.6.

Take B3: the PPI score in the test with UBE2N is < 0.6.

Consider B4, for which, in the test with UBE2N, the PPI score is < 0.6.

For the molecule B5, the PPI score in the test with UBE2N was < 0.6.

As to B6, the binding result with BRCA1 S1655F, with BRCA1 M1775R and with BRCA1 5382insC was “no binding” in each case.
